These are literature values, as cited in PMC2650391.

This data set deals with Histone H3K4me3 peptide (Homo sapiens) (UniProt P68431).

Sequence of ING2 PHD (Q9H160 209-264): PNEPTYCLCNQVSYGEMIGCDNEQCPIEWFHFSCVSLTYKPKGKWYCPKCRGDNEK

By Kd is commonly meant the concentration at which binding is half-saturated. For ING2 PHD (from UniProt Q9H160), the Kd is 1500 nM.
